Changes are numbered by the printed parent chain. Each block holds one molecule with its values, some of them ahead of it.
Tests used:
NCI-H929 = test: MTT in vitro cytotoxicity assay of BCMA antibody conjugates, NCI-H929; format: cell-based; conditions: Homo sapiens, 6000 cells, 96 h incubation, conjugates prepared via homogeneous conjugation process
Description: (§1) The cell lines used in the cytotoxicity assays were (1). NCI-H929, JJN3, U266, and MM1S were obtained from ATCC, and 8226-2A1cell is Myeloma antigen express cells through culturing and clone-picking of ATCC's RPMI-8226. The cells were grown according to the provider manuals. To run the assay, the cells (180 μl, 6000 cells) were added to each well in a 96-well plate and incubated for 24 hours at 37° C. with 5% CO2. Next, the cells were treated with test compounds (20 μl) at various concentrations in appropriate cell culture medium (total volume, 0.2 mL). The control wells contain cells and the medium but lack the test compounds. […] MTT (5 mg/mL) was then added to the wells (20 μl) and the plates were incubated for 1.5 hr at 37° C. The medium was carefully removed and DMSO (180 μl) was added afterward. After it was shaken for 15 min, the absorbance was measured at 490 nm and 570 nm with a reference filter of 620 nm. The inhibition % was calculated according to the following equation: inhibition %=[1−(assay-blank)/(control-blank)]×100.

MM1S = test: MTT in vitro cytotoxicity assay of BCMA antibody conjugates, MM1S; format: cell-based; conditions: Homo sapiens, MM1.S, 6000 cells, 96 h incubation, conjugates prepared via homogeneous conjugation process
Description: as §1

JJN-3 = test: MTT in vitro cytotoxicity assay of BCMA antibody conjugates, JJN-3; format: cell-based; conditions: Homo sapiens, 6000 cells, 96 h incubation, conjugates prepared via homogeneous conjugation process
Description: as §1

JJN-3 cell xenograft = test: Antitumor activity in vivo, JJN-3 cell xenograft mouse model of multiple myeloma; conditions: FIG. 10; single dose 5 mg/Kg
[1] = test system: multiple myeloma (MM) patients; conditions: cited from earlier work
[2] = target: T1, Human B cell maturation antigen (BCMA, CD269) (human, UniProt Q02223 1-54); test: ELISA, plate coated with 1 ug/ml soluble BCMA (recombinant TrxA-BCMA), OD450 against IgG concentration
T1 construct: Flow cytometry used whole BCMA on NCI-H929 and RPMI-8226-BCMA cells; also called hBCMA
T1 sequence: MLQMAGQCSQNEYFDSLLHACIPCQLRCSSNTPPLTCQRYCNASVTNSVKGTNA

[3] = target: T1, Human B cell maturation antigen (BCMA, …); test: flow cytometry on NCI-H929 cells with endogenous BCMA, PE anti-human IgG Fc secondary, MFI against concentration
[4] = target: T1, Human B cell maturation antigen (BCMA, …); test: ELISA on recombinant TrxA-BCMA, OD450 against IgG concentration

Molecule: CC(=O)O[C@H]1C(=O)[C@@]2(C)[C@H]([C@H](OC(=O)c3ccccc3)[C@]3(O)C[C@H](OC(=O)[C@H](O)[C@@H](NC(=O)c4ccccc4)c4ccccc4)C(C)=C1C3(C)C)[C@]1(OC(C)=O)CO[C@@H]1C[C@@H]2O [Paclitaxel]
- IC50 (NCI-H929): 2.89 nM
- IC50 (MM1S): 3.28 nM
- IC50 (JJN-3): 4.31 nM
- orders of the antitumor activity (JJN-3 cell xenograft): Paclitaxel<C-385

Molecule: Belantamabmafodotin
- overall response rate ([1]; for MM): 32%
- patients reported ocular toxicities requiring dose adjustments, dose delays and treatment discontinuations ([1]; patients with this ADC): over 60%

B5: Hybridoma monoclonal antibody BCMA-A2-6H4-5D2 (antibody, V domains shown)
VH: EVQLQQSGPELVKPGASVKMSCKASGYTFTSFLIHWVKQKPGQGLEWIGFIIPYNDGTKYNEKFKGKATLTSDKSSSTAYMELSSLTSEDSAVYYCARYDGSFEGYFDVWGAGTTLTVSS
VL: DVLMTQTPLSLPVSLRDQASISCRSSQSLVHSDGNTYLHWYLQKPGQSPKLLIYKVSNRFSGVPDRFSGSGSGTDFTLKISRVEAEDLGVYFCSQSTHVPWTFGGGTKLEIK
notes: Murine hybridoma antibody from BalB/c mice; also called clone BCMA-A2-6H4-5D2; CCTCC C2022188
- EC50 (read off the curve) [4]: ~0.09 µg/mL
- EC50 (read off the curve) [2]: ~0.01 µg/mL

Further lines, results first:

- EC50 (read off the curve) [2]: ~0.02 µg/mL
- EC50 (read off the curve) [3]: ~0.05 µg/mL
B1: Humanized antibody hu5D2 (antibody, human IgG1, kappa, V domains shown)
VH: QVQLVQSGAEVVKPGASVKMSCKASGYTFTSFLIHWVKQAPGQGLEWIGFIIPGNGGTKYNQKFQGKATLTSDTSSSTAYMELSSLRSEDSAVYYCARYDGSFEGYFDVWGQGTTLTVSS
VL: DVVMTQSPLSLPVSLRQPASISCRSSQSLVHSDGNTYLHWYLQKPGQSPRLLIYKVSNRDSGVPDRFSGSGSGTDFTLKISRVEAEDLGVYFCSQSTHWPWTFGQGTKLEIKR
modifications: N-linked glycan at Asn300
notes: also called Hu5D2 antibody; BCMA antibody

- EC50 (read off the curve) [3]: ~0.06 µg/mL
B2: hu5D2-Tub (antibody, human IgG1, kappa, V domains shown)
VH: B1 VH
VL: B1 VL
modifications: conjugated to a tubulysin analog payload; sites and drug/antibody ratio of the lot used in Fig. 3 are not given
notes: Antibody-drug conjugate of hu5D2; also called hu5D2 conjugated ADC; hu5D2-tub196

- EC50 (read off the curve) [2]: ~0.05 µg/mL
B3: c5D2 (antibody, human IgG1, kappa, V domains shown)
VH: B5 VH
VL: B1 VL with V3L, S7T, Q17D, P18Q, R50K, D60F, W99V, Q105G, R113T
notes: VH/VL of BCMA-A2-6H4-5D2 fused to human IgG1 and kappa constant domains; also called chimeric antibody c5D2

- EC50 (read off the curve) [4]: ~0.04 µg/mL
- EC50 (read off the curve) [2]: ~0.06 µg/mL
B4: J6M0 (antibody, V domains shown)
VH: QVQLVQSGAEVKKPGSSVKVSCKASGGTFSNYWMHWVRQAPGQGLEWMGATYRGHSDTYYNQKFKGRVTITADKSTSTAYMELSSLRSEDTAVYYCARGAIYDGYDVLDNWGQGTLVTVSS
VL: DIQMTQSPSSLSASVGDRVTITCSASQDISNYLNWYQQKPGKAPKLLIYYTSNLHSGVPSRFSGSGSGTDFTLTISSLQPEDFATYYCQQYRKLPWTFGQGTKLEIK

Reference: patent publication US20260158153A1, “BCMA MONOCLONAL ANTIBODY AND THE ANTIBODY-DRUG CONJUGATE” (priority 2021, published 2026)
